T1: Human EphA6 Fc fusion (Human, UniProt Q9UF33 23-550, limits assumed)
T1 construct: Bought Fc fusion; also called R&D Systems 5606-A6; not shown: Fc of the bought fusion
T1 sequence (looked up): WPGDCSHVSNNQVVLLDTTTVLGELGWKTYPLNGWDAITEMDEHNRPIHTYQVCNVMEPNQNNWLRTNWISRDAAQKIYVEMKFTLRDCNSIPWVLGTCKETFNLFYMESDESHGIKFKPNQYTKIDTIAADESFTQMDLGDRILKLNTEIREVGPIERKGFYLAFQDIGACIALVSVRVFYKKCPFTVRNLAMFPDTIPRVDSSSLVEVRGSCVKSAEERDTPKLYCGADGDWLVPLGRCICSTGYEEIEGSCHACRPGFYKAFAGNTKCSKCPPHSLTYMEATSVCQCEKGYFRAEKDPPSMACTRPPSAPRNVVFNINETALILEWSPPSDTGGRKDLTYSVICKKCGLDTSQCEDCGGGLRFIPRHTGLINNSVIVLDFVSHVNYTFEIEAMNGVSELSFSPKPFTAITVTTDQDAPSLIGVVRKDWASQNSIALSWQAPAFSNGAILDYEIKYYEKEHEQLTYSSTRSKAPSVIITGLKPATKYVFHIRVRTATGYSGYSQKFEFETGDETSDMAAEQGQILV

T2: Human EphB4 Fc fusion (Human, UniProt P54760 16-539)
T2 construct: Bought Fc fusion; also called Sino Biologics 10235-H02H; not shown: Fc of the bought fusion
T2 sequence (looked up): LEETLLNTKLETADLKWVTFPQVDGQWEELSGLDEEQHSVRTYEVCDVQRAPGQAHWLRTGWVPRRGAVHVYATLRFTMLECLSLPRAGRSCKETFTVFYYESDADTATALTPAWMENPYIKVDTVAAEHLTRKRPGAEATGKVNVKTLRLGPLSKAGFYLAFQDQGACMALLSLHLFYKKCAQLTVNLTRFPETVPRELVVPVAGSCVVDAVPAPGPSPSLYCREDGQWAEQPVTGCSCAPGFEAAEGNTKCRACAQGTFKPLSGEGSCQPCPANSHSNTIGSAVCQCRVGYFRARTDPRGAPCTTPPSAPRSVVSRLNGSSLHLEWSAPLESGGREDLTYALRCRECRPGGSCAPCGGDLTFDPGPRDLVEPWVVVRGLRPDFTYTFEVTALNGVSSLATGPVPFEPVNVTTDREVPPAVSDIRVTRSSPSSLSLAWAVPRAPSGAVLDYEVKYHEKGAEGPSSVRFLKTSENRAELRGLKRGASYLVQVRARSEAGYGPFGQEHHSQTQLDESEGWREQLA


Experiments:
Human EphA6 Fc fusion = molecular target: T1, Human EphA6 Fc fusion; assay: SPR, Fc-tagged protein captured by anti-human IgG
Human EphB4 Fc fusion = molecular target: T2, Human EphB4 Fc fusion; assay: SPR, Fc-tagged protein captured by anti-human IgG
Human EphA5 = molecular target: T3, Human EphA5 (Human, UniProt P54756 25-573, limits assumed, biotinylated, 3.1 mol biotin/monomer); assay: SPR, biotinylated protein on streptavidin
T3 construct: Bought protein; also called R&D Systems 3036-A5
T3 sequence (P54756 25-573 limits assumed): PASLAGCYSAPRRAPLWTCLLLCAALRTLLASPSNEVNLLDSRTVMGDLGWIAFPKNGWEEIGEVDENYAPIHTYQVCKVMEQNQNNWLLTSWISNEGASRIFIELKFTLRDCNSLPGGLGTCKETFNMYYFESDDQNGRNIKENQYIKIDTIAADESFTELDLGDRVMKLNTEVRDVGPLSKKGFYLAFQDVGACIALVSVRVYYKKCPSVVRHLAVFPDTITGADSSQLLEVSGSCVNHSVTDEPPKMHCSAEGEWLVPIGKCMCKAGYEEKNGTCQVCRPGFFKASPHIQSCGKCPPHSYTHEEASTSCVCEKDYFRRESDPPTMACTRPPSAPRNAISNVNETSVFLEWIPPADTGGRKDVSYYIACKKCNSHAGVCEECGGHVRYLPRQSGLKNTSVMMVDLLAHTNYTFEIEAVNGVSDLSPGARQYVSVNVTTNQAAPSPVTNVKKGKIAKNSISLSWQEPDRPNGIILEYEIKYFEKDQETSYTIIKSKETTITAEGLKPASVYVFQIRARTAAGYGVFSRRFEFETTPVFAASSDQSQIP

Row | binding result (Human EphA6 Fc fusion) | binding result (Human EphB4 Fc fusion) | binding result (Human EphA5) | Binder
1 | no binding (tested: 20 µM) | no binding (tested: 20 µM) | no binding (tested: 25 µM) | AXDCPLVNPLCLHPGWTC (not fully specified; N-terminal (β-Ala)-Sar10 spacer precedes SEQ ID NO: 11; HArg (homoarginine) at residue 2 of SEQ ID NO: 11; three Cys cyclised on the TATA scaffold; DM1-SS(SO3H)- (DM1-SO3H-SPDB) on the N-terminal amine) [BCY6082]
2 | no binding (tested: 20 µM) | no binding (tested: 20 µM) | no binding (tested: 25 µM) | AXDCPLVNPLCLHPGWTC (not fully specified; N-terminal (β-Ala)-Sar10 spacer precedes SEQ ID NO: 11; HArg (homoarginine) at residue 2 of SEQ ID NO: 11; three Cys cyclised on the TATA scaffold; ValCit-MMAE (MMAE-PABC-Cit-Val-glutarate) on the N-terminal amine) [BCY6033]

From US20240000957A1 (published 2024)
